Measured values as given in the supplement of paper PMC10126150.
± gives the standard deviation of the averaged measurements.

System: ATP
Assay: switch fluorescence ratio, 500 uM ATP over buffer (Cy3 cluster intensity, sum of 5 cycles each) (fold (ratio)); higher = stronger signal-on switching upon ATP binding; sequences stand for … in TCGTCGGCAGCGTCAGATGTGTATAAGAGACAGTTTTTTTTTTTTTTTTTTTTTTTTT…TC
Conditions: aptamer strand: ATP DNA aptamer (quencher-CACCTGGGGGAGTATTGCGGAGGAAGG + anchor), 100 nM annealed; ATP concentration: 500 uM
Method in brief: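 Clusters with intensities outside 100-1000 RFU were excluded. The remaining Cy3-labelled switching-strand clusters on a modified Illumina MiSeq flow-cell had been annealed to 100 nM quencher-labelled ATP aptamer and imaged in selection buffer, then after 15 min with 500 uM ATP at 22 °C, for five cycles separated by NaOH stripping and re-annealing. The fluorescence ratio, averaged per switch-domain sequence, is each cluster's summed target-cycle Cy3 intensity over its summed buffer-cycle Cy3 intensity.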
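Further: ATP exposure 15 min at 22 °C before imaging.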

| Sequence | switch fluorescence ratio |
| --- | --- |
| GGTTTAGGCC | 0.991 ± 0.03 |
| GGTTTATGGA | 1.03 ± 0.024 |
| GGTTTATGGT | 0.967 ± 0.019 |
| GGTTTCAGGG | 0.986 ± 0.013 |
| GGTTTCCAAT | 1 ± 0.02 |
| GGTTTCCGGC | 1.008 ± 0.0087 |
| GGTTTCCGT | 0.987 ± 0.038 |
| GGTTTCGATG | 1 ± 0.023 |
| GGTTTCGCCG | 0.985 ± 0.052 |
| GGTTTCGGTT | 1.5 ± 0.86 |
| GGTTTCTAGA | 0.984 ± 0.024 |
| GGTTTCTGGG | 0.963 ± 0.017 |
| GGTTTGAAGC | 0.9642 ± 0.008 |
| GGTTTGAGGG | 0.985 ± 0.028 |
| GGTTTGATAT | 0.972 ± 0.013 |
| GGTTTGCAAG | 0.986 ± 0.018 |
| GGTTTGCTGT | 0.99034 ± 0.00027 |
| GGTTTGTTGT | 0.972 ± 0.022 |
| GGTTTTAACA | 1 ± 0.051 |
| GGTTTTACTC | 1.0379 ± 0.0006 |
| GGTTTTAGGA | 0.987 ± 0.025 |
| GGTTTTGCAC | 1.03 ± 0.038 |

| Sequence | switch fluorescence ratio |
| --- | --- |
| GGTTTTGGCT | 0.991 ± 0.01 |
| GGTTTTGGGT | 0.978 ± 0.026 |
| GGTTTTGGTT | 0.986 ± 0.025 |
| GGTTTTGTCA | 1.01 ± 0.019 |
| GGTTTTTATG | 1.004 ± 0.009 |
| GGTTTTTGGC | 1.02 ± 0.048 |
| GGTTTTTTAA | 0.995 ± 0.011 |
| GGTTTTTTTT | 0.992 ± 0.03 |
| GTAAACGGGT | 0.963 ± 0.016 |
| GTAACAGGCG | 0.905 ± 0.021 |
| GTAACCAAGA | 1.02 ± 0.0035 |
| GTAACTAATG | 1.02 ± 0.02 |
| GTAACTCGAA | 0.98231 ± 0.00092 |
| GTAAGAAAGA | 1.02 ± 0.015 |
| GTAAGAGGAA | 1.01 ± 0.044 |
| GTAAGGAAAT | 1.013 ± 0.0024 |
| GTAAGGGGCG | 1.02 ± 0.035 |
| GTAAGTCCGA | 0.98 ± 0.0033 |
| GTAATAACGG | 1.034 ± 0.0033 |
| GTAATAAGGG | 1.04 ± 0.041 |
| GTAATAGGGT | 1.01 ± 0.033 |
| GTAATGATTG | 0.989 ± 0.014 |

| Sequence | switch fluorescence ratio |
| --- | --- |
| GTAATGCTCA | 1.36 ± 0.062 |
| GTAATGGGGA | 1.02 ± 0.015 |
| GTAATTGGGA | 1.022 ± 0.0011 |
| GTAATTGTTA | 1 ± 0.015 |
| GTAATTTTGC | 0.989 ± 0.059 |
| GTACAGGTTT | 1.018 ± 0.0074 |
| GTACCCCAGG | 3.5 ± 3.3 |
| GTACCTTGAT | 1.05 ± 0.015 |
| GTACTATCTC | 0.998 ± 0.046 |
| GTACTCATTT | 1 ± 0.038 |
| GTACTCGAGC | 1 ± 0.018 |
| GTAGAGGGGG | 0.989 ± 0.014 |
| GTAGCAGGGG | 1.3 ± 0.068 |
| GTAGCATGCC | 1.32 ± 0.088 |
| GTAGCGAGAG | 2.11 ± 0.24 |
| GTAGGACGGG | 0.995 ± 0.012 |
| GTAGGCCATG | 1 ± 0.022 |
| GTAGGCGGTG | 0.984 ± 0.029 |
| GTAGGGATGG | 1.03 ± 0.013 |
| GTAGGGGAAG | 1.01 ± 0.017 |
| GTAGGGGGTC | 1.01 ± 0.027 |
| GTAGGTTACT | 1.01 ± 0.019 |

| Sequence | switch fluorescence ratio |
| --- | --- |
| GTAGGTTATG | 1.007 ± 0.0081 |
| GTAGTAAGCG | 0.953 ± 0.045 |
| GTAGTAGATG | 1.013 ± 0.0097 |
| GTAGTAGCGT | 0.969 ± 0.022 |
| GTAGTGGCAG | 0.992 ± 0.049 |
| GTAGTTGATG | 0.9665 ± 0.0026 |
| GTAGTTTATG | 0.996 ± 0.014 |
| GTAGTTTGAG | 0.996 ± 0.015 |
| GTAGTTTTTT | 1.04 ± 0.032 |
| GTATAAAGGC | 1.01 ± 0.047 |
| GTATAACCCG | 0.992 ± 0.026 |
| GTATAAGGTT | 0.98006 ± 0.00074 |
| GTATAATGGG | 0.973 ± 0.019 |
| GTATGAAATC | 1.02 ± 0.036 |
| GTATGAAGAG | 0.995 ± 0.023 |
| GTATGAGTAG | 0.992 ± 0.035 |
| GTATGCGTGC | 1.04 ± 0.017 |
| GTATGCGTTG | 0.989 ± 0.056 |
| GTATGGAGCG | 0.981 ± 0.019 |
